Data as given in article PMC5774706.

Target: human cytosolic aminopeptidase P, R535A mutant (human) (UniProt Q9NQW7)
Sequence (Q9NQW7 whole entry R535A): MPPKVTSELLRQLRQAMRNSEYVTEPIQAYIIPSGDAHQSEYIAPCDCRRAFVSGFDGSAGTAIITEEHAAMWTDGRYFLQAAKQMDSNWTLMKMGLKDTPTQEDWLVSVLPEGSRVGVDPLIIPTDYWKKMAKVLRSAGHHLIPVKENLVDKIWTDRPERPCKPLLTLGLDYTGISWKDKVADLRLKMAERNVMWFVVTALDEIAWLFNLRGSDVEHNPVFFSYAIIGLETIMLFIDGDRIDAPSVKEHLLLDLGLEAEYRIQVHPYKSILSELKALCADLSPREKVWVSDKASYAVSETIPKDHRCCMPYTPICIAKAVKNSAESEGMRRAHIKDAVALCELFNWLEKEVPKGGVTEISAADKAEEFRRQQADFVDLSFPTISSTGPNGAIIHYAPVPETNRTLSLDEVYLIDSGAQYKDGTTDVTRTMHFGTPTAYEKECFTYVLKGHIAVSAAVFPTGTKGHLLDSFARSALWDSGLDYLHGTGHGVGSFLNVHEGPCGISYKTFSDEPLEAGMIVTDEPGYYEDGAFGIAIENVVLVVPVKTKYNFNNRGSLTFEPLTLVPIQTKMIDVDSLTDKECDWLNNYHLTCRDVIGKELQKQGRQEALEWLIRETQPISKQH

Chain of bradykinin (P01042 whole entry, looked up): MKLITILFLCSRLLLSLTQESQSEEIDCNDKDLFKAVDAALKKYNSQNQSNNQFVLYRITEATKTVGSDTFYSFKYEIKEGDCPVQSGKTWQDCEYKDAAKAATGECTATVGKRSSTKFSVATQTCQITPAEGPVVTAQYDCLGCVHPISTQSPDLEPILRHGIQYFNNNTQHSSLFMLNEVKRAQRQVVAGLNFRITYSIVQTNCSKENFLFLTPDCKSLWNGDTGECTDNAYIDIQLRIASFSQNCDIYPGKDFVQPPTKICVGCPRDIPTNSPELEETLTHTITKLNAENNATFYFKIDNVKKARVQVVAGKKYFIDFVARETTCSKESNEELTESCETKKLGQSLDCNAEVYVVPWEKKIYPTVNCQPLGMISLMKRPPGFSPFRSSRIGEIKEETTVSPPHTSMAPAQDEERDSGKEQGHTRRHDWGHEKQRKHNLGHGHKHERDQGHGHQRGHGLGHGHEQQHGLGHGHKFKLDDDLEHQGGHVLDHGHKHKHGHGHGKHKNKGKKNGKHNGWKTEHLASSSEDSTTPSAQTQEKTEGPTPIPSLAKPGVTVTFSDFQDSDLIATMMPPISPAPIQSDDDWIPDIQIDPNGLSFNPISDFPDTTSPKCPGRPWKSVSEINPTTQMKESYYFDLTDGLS

## bradykinin (from UniProt P01042 381-389) (peptide)
  Km for bradykinin of the hydrolysis catalysed by R535A hcAMPP (HPLC of des-Arg-bradykinin, 50 mM Tris-HCl pH 7.5, 37°C), with 0, 0.1, 1 and 10 mM guanidine hydrochloride: 350, 327, 144 and 163 μM: 350 μM
